# Source: paper PMC2859985 (Virus research, 2010)
# T1: importin alpha 3, His-tagged (human, UniProt O00629 1-521)
# T1 sequence (looked up): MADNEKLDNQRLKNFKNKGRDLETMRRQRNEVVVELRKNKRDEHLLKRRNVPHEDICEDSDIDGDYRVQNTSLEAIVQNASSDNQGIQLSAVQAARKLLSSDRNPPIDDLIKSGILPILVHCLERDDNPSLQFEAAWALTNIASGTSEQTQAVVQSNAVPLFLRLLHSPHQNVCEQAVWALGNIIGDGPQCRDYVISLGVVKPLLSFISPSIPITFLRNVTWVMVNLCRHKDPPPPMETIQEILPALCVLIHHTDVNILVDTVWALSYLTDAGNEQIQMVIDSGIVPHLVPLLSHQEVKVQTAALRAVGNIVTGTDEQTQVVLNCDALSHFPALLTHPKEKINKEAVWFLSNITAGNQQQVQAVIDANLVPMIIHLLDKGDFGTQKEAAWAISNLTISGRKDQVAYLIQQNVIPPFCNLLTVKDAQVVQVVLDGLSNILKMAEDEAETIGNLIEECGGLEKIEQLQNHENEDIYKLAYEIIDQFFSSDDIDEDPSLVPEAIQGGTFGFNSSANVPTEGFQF
# Experiments:
# [1] = target: importin alpha 5, His-tagged (human, UniProt P52294 1-538); assay: pull-down
# [2] = target: T1, importin alpha 3, His-tagged; assay: pull-down
# Sequence of importin alpha 5, His-tagged (P52294 whole entry): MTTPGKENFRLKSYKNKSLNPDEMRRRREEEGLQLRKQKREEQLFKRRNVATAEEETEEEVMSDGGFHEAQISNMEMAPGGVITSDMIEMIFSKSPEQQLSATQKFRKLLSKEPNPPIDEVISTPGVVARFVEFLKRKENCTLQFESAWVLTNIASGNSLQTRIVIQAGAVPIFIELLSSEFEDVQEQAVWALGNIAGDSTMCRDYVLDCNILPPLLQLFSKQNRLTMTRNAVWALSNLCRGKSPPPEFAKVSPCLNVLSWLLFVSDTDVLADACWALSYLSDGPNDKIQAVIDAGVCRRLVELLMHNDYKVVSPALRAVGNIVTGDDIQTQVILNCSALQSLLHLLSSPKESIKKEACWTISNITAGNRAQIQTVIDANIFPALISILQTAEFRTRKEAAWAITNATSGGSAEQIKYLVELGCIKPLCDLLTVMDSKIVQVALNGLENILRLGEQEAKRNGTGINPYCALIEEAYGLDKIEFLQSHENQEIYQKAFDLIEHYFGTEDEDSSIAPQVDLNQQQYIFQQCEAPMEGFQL
Binder,binding result [1],binding result [2]
GST-HPV16 E2 (natural protein) METLCQRLNVCQDKILTHYENDSTDLRDHIDYWKHMRLECAIYYKAREMGFKHINHQVVPTLAVSKNKALQAIELQLTLETIYNSQYSNEKWTLQDVSLEVYLTAPTGCIKKHGYTVEVQFDGDICNTMHYTNWTHIYICEEASVTVVEGQVDYYGLYYVHEGIRTYFVQFKDDAEKYSKNKVWEVHAGGQVILCPTSVFSSNEVSSPEIIRQHLANHPAATHTKAVALGTEETQTTIQRPRSEPDTGNPCHTTKLLHRDSVDSAPILTAFNSSHKGRINCNSNTTPIVHLKGDANTLKCLRYRFKKHCTLYTAVSSTWHWTGHNVKHKSAIVTLTYDSEWQRDQFLSQVKIPKTITVSTGFMSI,binds,
GST-HPV11 E2 (natural protein) MEAIAKRLDACQDQLLELYEENSIDIHKHIMHWKCIRLESVLLHKAKQMGLSHIGLQVVPPLTVSETKGHNAIEMQMHLESLAKTQYGVEPWTLQDTSYEMWLTPPKRCFKKQGNTVEVKFDGCEDNVMEYVVWTHIYLQDNDSWVKVTSSVDAKGIYYTCGQFKTYYVNFNKEAQKYGSTNHWEVCYGSTVICSPASVSSTVREVSIAEPTTYTPAQTTAPTVSACTTEDGVSAPPRKRARGPSTNNTLCVANIRSVDSTINNIVTDNYNKHQRRNNCHSAATPIVQLQGDSNCLKCFRYRLNDKYKHLFELASSTWHWASPEAPHKNAIVTLTYSSEEQRQQFLNSVKIPPTIRHKVGFMSLHLL,binds,binds
